Test: yeast display, Sf9 membrane polyspecificity reagent, FACS + sequencing; frameworks hold sequencing errors
Outline: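 Synthetic nanobody libraries on Saccharomyces cerevisiae BJ5465 were galactose-induced for 36–48 hours, stained 1 hour at 4 °C with 10% biotinylated, detergent-solubilized Sf9 membrane reagent and enriched on streptavidin microbeads. FACS then separated cells into low and high (top ~1%) gates by anti-HA (expression) and streptavidin (reagent binding) fluorescence. Genes were colony-PCR amplified, MiSeq 2 × 250 sequenced and CDR-length filtered. A clone's polyreactivity label is that of its gate of origin.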

Sequence | polyreactivity (PSR sort gate)
QVQLVESGGGLVQAGGSLRLSCAASGSIFTYYAMGWYRQAPGKERELVAAISSDGGRTFYADSVKGRFTISRDNAKNTVYLQMNSLKPEDTAVYYCAAETNRFPGYGYWGQGTQVTVSA | low polyreactivity
QVQLVESGGGLVQAGGSLRLSCAASGITFTSYAMGWYRQAPGKERELVAAISSSGGSTYYADSVKGRFTISRDNAKNTVYLQMNRLKPEDTAVFYCNARPRSRSPRVEYDYWGQGTQVNVSS | high polyreactivity
QVQLVESGGGLVQAGGSLRLSCAASGFTFWSYAMGWYRQAPGKERELVAAISRNGGRTYYADSVKGRFTISRDNAKNTVYVQMNSLKPEDTAVYYCATRARNRYTEMDYWGQGTQVTVSS | high polyreactivity
QVQLVESGGGLVQAGGSLRLSCAASGRIFGYYAMGWSRPAPGKERELVATITFGGVSTYYADSVKGRFTISRDNAKNNVYLQMNSLKPEDTGVYYCAADSGYLGIYGDEYSWGQGTQVTVSS | low polyreactivity
QVQLVESGGGLVQAGGSLRLSCAASGSIFFYNAMGWYRQAPGKERELVAAISRGGNTNYADSVKGRFTISRDNANNTVYLQMNSLKPEDTAVYYCNAESLSGAHGYWGQGTQVTVSS | low polyreactivity
QLQLVESGGGLVQAGGSLRLSCAASGRIFTGNAMGWYRQAPGKERELVAAISYSGGSTYYADSVKGRFTISRDNAKNTVYLQMNSLKPEDTAVYYCAAAGRYLRYGYWGQGTQVTVSS | high polyreactivity
QVQLVESGGGLVQAGGSLRLSCAASGSTFAIYAMGWYRQAPAKERELVAAITRGSTSYADSVKGRFTISRDNAKNTVYLQMNSLKPEDTAVYDCAADSSRYGVIRDFDYWGQGTQVTVSS | high polyreactivity
QVQLVESGGGLVQAGGSLRLSCAASGRIFFNYAMGWYRQAPGKVRELVASITWRGGNTYYADSVKGRFTISRDNAKNTVYLQMNSLKPEDTAVYYCAASIRRAGRTYYYWGQGTQVTVSS | high polyreactivity
QVQLEESGGGLVQAGGSLRLSCAASGSIFTANAMGWYRQAHGKERELVAAINRSGGRTYADSVKGRFTISRDNAKNTVYLQMNSLKPEDTAVYYCAAVGHVYKGHDFGYWGQGTQVTVSS | low polyreactivity
QVQHVESGGGLVQAGGSLRLSCAASGFIFTANAMGWYRQAPGKERELVAGIRSGSSTYYADSVKGRFTISRDNAKNTVYLQLNSLKPEDTAVYYCNAEKFNFIYAYEYWGKGTQVTVSS | low polyreactivity
QVQLVESGGGLVHAGGRLRLSCAASGRISGYAMAWYRQAPRTERELVAAISTRGGTTYYADSVKGRFTISRDNAKNTVYLQMNSLKPEDTAVYFCNAASSRWPEYDFWGQGTQVTVSS | high polyreactivity
QVQLVESGGGLVQAGGSLRLSCAASGFIFSIYTMGWYRQAPGKERELVAAISWSGGSTYYADSVKGRFTISRDNAKNTVYLQMNSLKPEDTAVYYCNRVQFSPVYRFREYDYWGQGSQVTVSS | high polyreactivity
QVQLVESGGGLVQAGGSLRLSCAASGRTVVTNAMGWYRQAPGKERELVATINWSGGRTHYADSVKGRFTISRDNAKITVYLQMNSLIPEDTAVYYCAKASSRRYWTIRDGDYWGQGTQVTVAS | low polyreactivity
QEQLVQSAGGLVQAGGSLPLSCAASGSIIISNAMGWYRQAPGKERELVAAISRSGARTYYADSVKGRFTISRDNAKNTVYLQMNSLKPEDTAVYSCAVDGYSPYKYDYWGQGTLVTVSS | high polyreactivity
QVQLVESGGGLVQAGGSLRLSCAASGRIFDGYTMGWYRQAPGKERELVAAITYRSGRTYYADSVKGRFTISRDNAKNTVYLQMNSLKPEDTAVYYCNKVKRSFIVNTDDYCGQGTQVTVSS | high polyreactivity
QVQLVESGGGLVQAGGSLRLSCAASGFTFTRNAMGWYRQAPGKERELVAAISSSAGSTSYADSVKGRFTISRDNAKNPVYLQMNRLKPEDTAVYYCATEGSYYSWVGKVGYRYQYHYWGQGTQVTVSS | high polyreactivity
QVQLVESGGGLVQAGGSLRLSCAASGSIFRRYAMGWYRQAPGKERELVAGITRGGSTYYADSVKGRFTISRDNAKNTVYLQMNSLKPEDTAVYYCNAVRRGLPVVGAYDYWGQGTQVTVSS | high polyreactivity
QVQVVESGGGLVQAGGSLRLSCAASGSIFSSYAMGWYRQAPGKERELVAAITGSGGSTDYADSVKGRFTISRDNAKNTVYLQMNSLKPEDTAVYYCAARRFWPGNSYYYRYYYWGQGTQVTVSS | low polyreactivity
QVQLVESGGGLVQAGGSLRLSCAASGGIFYTNAMGWYRQAPGKERELVAAISRSGGSTYYADSVKGRFTISRDNAKNTVYLQMNSLKPEDTAVYYCAARVYVYGYSYDYWGQGTQVTVSS | high polyreactivity
QVQLVESGGGLVQAGGSLRLSCAASGFTFVYNAMGWYRQAPGKERELVASITQSGDITYYADSVKGRFTISRDNAKNTVYLQMNSLKPEDTAVYYCNKFQGTGDRFDSWGQGTQVTVSS | low polyreactivity
QVQLVESGGGLVQAGGSLRLSCAASGYTFSAYAMGWYRQAPGKERELVAVINRSGVRTYYADSVKGRFTISRDNAKNTVYLQMNSLKPEDTAVYYCAADYRNTVLEMDYWGQGTQVTVSS | high polyreactivity
QVQLVESWGGLVQAGGSLRLSCAASGITFSSNAMGWSRQAPGKERELVAAINSGDSTNYADSVKGRFTISRDNAKNTVYLQMNSLKPEDTAVYDCAKRYRRRFNYWGQGTQVTVSS | high polyreactivity

Sequence | polyreactivity (PSR sort gate)
HVQLVESGGGLVQAGGSLRLSCAASGSTVRRYAMGWYRQAPGKEREFVASITWRGGGTYYADSVKGRFTISRDNAKNTVYLQMNSLKPEETAVYYCASATQVRGHSLPYGYWGQGTQVTVSS | high polyreactivity
QVQLVESGGGLVQAGGSLRLSCASSGFTLVGYAMGWYRQAPGKERELVAAISYRGGSTYYADSVKGRFTISRDNAKNTVYLQMNSLKPEDNAVYYCAATYQGSSRSRGYWGQGTQVTVSS | high polyreactivity
QVQLVESGGGLVQAGGSLRISCAASGSTFYVNAMGWYRQAPGKERELVAAIDGGDTYYADSVKGRFTISRDNAKNTVYLQMNSLKPEDTAVYYCAAESLPEISVGLGYWGQGTQVTVSS | low polyreactivity
QVQLQESGGGLVQAGGSLRLSCAASGSISAVGAMGWYRQAPGKEREFAASVNWGTNTNYADSVKGRFTISRDNAKTTLYLQMNSLKPEDTAVYYCAADVQITSAGGDYDYWGQGTQVTVSS | low polyreactivity
QVQLVESGGGLVQAGGSLRLSCAASGSTFPFYAMGWYRQAPGKERELVAAITSGGSTYADSVKGRFTISRDNAKNTVYLQMNSLNPEDTAVYYCAASWPRWWRFGYWGQGTQVTVSS | low polyreactivity
QVQLVESAGGLVQAGGSLRLICAASGSIVASYPKGWYRQAPGKERELVAAISDGGGRTYYADSVKGRFTISRDNAKNTVYLQMNSLKPEDTAVYYCAAYAVYTYRRARVYWGQGTQVTVSS | high polyreactivity
QVQLVESGGGLVQAGGSLRLSCAASGRTFTPNAMGWYRQAPGKEREFVAAITYSGGSTRYADSVKGRFTISRDNAKNTVYLQMNSLKPEDTAVYYCAKGYFYYVYTEDDGYWGQGTQVTVSS | low polyreactivity
QVQLVESGGGLVQAGGSLRLSCAASGYTFYIYAMGWYIQAPGKERELVAAISWTDGSTYYADSVKGRFTISRDNAMNSVYLQMNSLKPEHTAVYYCAKTSLYAGAKEYDYWGQGTQVTVSS | low polyreactivity
QVQLVESGGGLVQAGGSLRLSCAASGRTFGRNAMGWYRQAPGKERELVAAITWSGGSTYYADSVKGRFTISRDNAKNTVYLQMNSLKPEDTAVYYCAADRSRWGQGTQVTVSS | high polyreactivity
QVQLVESGGGLVQAGGSLRLSCAASVSIIACYTMGWYRQATGTERELVAGIRRGGSTNYADSVKGRVTISRDNAKNTVYLQMNSLKPEDTAVYYCNAQRTRSYVLRTFDYWGQGTQVTVSS | high polyreactivity
QVQLVESGGGLVQAVGSLRLSCAASGGIFRVYAMGWYREAPGKEREMVAAIRWTGGSTYYADSVKGRFKISRDNAKNTVYLQMKRLKPEDTAVYYWAAGRYYSDGSRTIYDYWGQGTQVTVSS | low polyreactivity
QVQLVESGGGLVQAGGSLRLSCAASGSIFTKYAMGWYRQAPGKERELVAGISRTTGSTYYADSVKGRFTISRDNAKNTVYLQMNSLKPEDTAVSYCNAVYGHGNYFRSEDDYWGQGTQVTVSS | high polyreactivity
QVQLVESGGGLVQAGGSLRLSCAASGLTFTSYAMGWSRPAPGKERELVAAIDWSGGRTYYADSVKGRFTISRDNAKNTVYLQMNSLKPEDTAVYYCAAYSRNRALRFNYWGQGTQVTVSS | high polyreactivity
QVQLVESGGGLVQAGGSLRLSCAASGRTFGRYAMGWYRQAPGKERELVATITSGGSTNYADSVKGRFTISRDNAKNTVYLQMNSLKPEDTAVYYCAADVKRDRVWGGDYWGQGTQVTVSS | low polyreactivity
QDQHGESGGGLVQAGGSLRLSCAASGYTFLRNDMGWYRQPHGKVRELVAAISYSGGGTYYADSVKGRFTISRDNAKITVYLQMNSLKPEDTAVYYCNVAQRYYGNFFSSRYEYWGQGTQVTVSS | low polyreactivity
QVQLVESWGGLVQAGGSLRLSCAASGRIFKYNAMGWYRQAPGKERELVAAISGGGSTNYADSVKGRFTISRDNAKNTVYLQMNSLKPEDTAVYYCAASDPFEASQYKYDYWGQGTQVTVSS | low polyreactivity
QVQLVESGGGLVQAGGSLRLSCAASGLSFTFGYAMGWYRQAPGKERELVASISSSGGNTYYADSVKGRFTISRDNAKNTVYLQMNSLKPEDTAVYYCAVYSHRRNMNYWGQGTQVTVSS | high polyreactivity
QVQLVESGGGLVQAGGSLRLSCAASGITFDKYAMGWNRQAPGKERELDAAISGSDGSTYYADSVKGRFTISRDNAKNTVYLQMNILKPEDTAVYYCAAESEYAGTYEYDYWGQGTQVTVSS | low polyreactivity
LVQLQESGGGLVQAGGSLRLSCAASGTITPGGYKGWYRQAPGKERELVASINVGGSTNYADSVKGRFTISRDNAKKTVYLQMKSLKPEDNAVYYCAVWGRNRLQLSYWGQGTQVTVSS | low polyreactivity
QVQLVESGGGLVQAGGSLRLSCAASGRIFLINALGCYRQAPGKERELVAAIRTGGNTYYADSVKGRFTISRDNAKNTVYLQMNSLKPEDTAVYSCAADRIYPYYRWSGAHRSDVDYWGQGTQVTVSS | low polyreactivity
QVQLVESGVGLVQAGGSLRLSCAASGYTFQINAMGWYRQAPGKERELVAAITSGGRTYYADSVKGRFTISRDNAKNTVYLQMNSLKAEDTAVYYCNKVPRRGVDYWGQGTQVTVSW | low polyreactivity
